Results on 1 protein are retold here after publication PMC9814837, “Design of a gold clustering site in an engineered apo-ferritin cage” (Communications Chemistry, 2022).

The data set deals with the molecule itself. The experiment in a line: crystal structure; hanging-drop vapor diffusion, 0.5-1 M (NH4)2SO4 and 10-20 mM CdSO4, 20 °C; data at 100 K; space group F432, cage rebuilt by symmetry; apo protein and composites after reaction with 10-400 equiv. Au(I) precursor.

B1: apo-R168H/L169C-rHLFr (recombinant L-chain ferritin from horse liver, R168H/L169C mutant) (natural protein, UniProt P02791 1-175, looked up)
chain: MSSQIRQNYSTEVEAAVNRLVNLYLRASYTYLSLGFYFDRDDVALEGVCHFFRELAEEKREGAERLLKMQNQRGGRALFQDLQKPSQDEWGTTLDAMKAAIVLEKSLNQALLDLHALGSAQADPHLCDFLESHFLDEEVKLIKKMGDHLTNIQRLVGSQAGLGEYLFEHCTLKHD
notes: ferritin L-chain, horse liver, recombinant (rHLFr); last residue named is Asp174; Crystallised apo and after reaction with 10-400 equiv. of chloro(dimethylsulfide)gold(I); also called Au(10 equiv.)-apo-R168H/L169C-rHLFr; Au(50 equiv.)-apo-R168H/L169C-rHLFr; source: E. coli (NovaBlue, vector pMK2), purified (heat treatment, Q Sepharose, S-300); copies: 24
Take B1: the binding result is given as “binds”.
